The target in experiment [1] is full length human Bcl-xL S4C, C151A, labelled (human) (UniProt Q07817). Briefly: FCCS kinetics in solution fitted with an ODE model; Bcl-xLR and Bcl-xLG mixed and incubated 2 h at RT, then 400 nM unlabeled cBid (~10-fold excess) or buffer added at t = 0; CC followed over time; rate constants from the ODE model of scenario 2 with likelihood profiles (95% confidence).
Experiment [2] deals with full length human Bax S4C, C62S, C126S, labelled (human) (UniProt Q07812). Briefly: scanning FCCS in giant unilamellar vesicles; membrane-embedded proteins in GUVs (30% CL or MOM mix), 22 °C; membrane insertion with cBid (labelled cBid as partner, or unlabeled cBid as activator; for Bax with Bcl-xL: cBid, Bax and GUVs incubated 30 min before Bcl-xL was added); mean CC above 20% indicates interaction.

Experiment [3] concerns the target full length human Bcl-xL S4C, C151A, labelled (human) (UniProt Q07817). Described as above.
The target is the same in experiment [4]. Nature of the experiment: fluorescence cross-correlation spectroscopy (FCCS) in solution; both partners free in solution, one with a green and one with a red dye; 150 mM NaCl, 20 mM Tris, pH 7.5; incubated at least 30 min (1 h for the cBidG titration); protein concentrations up to 200 nM; CC above 2.8% indicates interaction.

A value given as a limit tells only on which side of the number the result lay.

Chain of UniProt Q07817 (Q07817 whole entry S4C/C151A): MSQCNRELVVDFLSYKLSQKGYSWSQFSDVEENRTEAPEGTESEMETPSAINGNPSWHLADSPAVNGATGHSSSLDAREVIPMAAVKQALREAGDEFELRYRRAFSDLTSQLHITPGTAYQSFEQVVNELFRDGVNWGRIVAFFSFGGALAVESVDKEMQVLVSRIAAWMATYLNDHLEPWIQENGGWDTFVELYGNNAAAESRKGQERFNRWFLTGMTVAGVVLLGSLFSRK
Chain of UniProt Q07812 (Q07812 whole entry S4C/C62S/C126S): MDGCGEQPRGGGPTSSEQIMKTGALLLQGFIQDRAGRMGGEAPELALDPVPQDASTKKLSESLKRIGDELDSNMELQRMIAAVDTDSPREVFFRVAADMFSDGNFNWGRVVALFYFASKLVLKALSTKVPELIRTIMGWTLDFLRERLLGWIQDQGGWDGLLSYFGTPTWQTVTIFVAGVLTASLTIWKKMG

With “cBid (caspase 8-cleaved full length mouse Bid), unlabeled (complex)”, the k+3 (cBid with a Bcl-xL homo-dimer, giving a cBid/Bcl-xL hetero-dimer and a Bcl-xL monomer) in experiment [1] was 10 to 700 M⁻¹ s⁻¹.
Consider “cBid (caspase 8-cleaved full length mouse Bid) labelled at the C-terminal fragment (complex)”, for which the %CC in experiment [2] was less than 40 % CC; in experiment [3], greater than 60 % CC; in experiment [4], less than 40 % CC.
“full length human Bax S4C, C62S, C126S, labelled (from UniProt Q07812 1-192) (natural protein)” returned a %CC (highest, in single GUVs) in experiment [2] of less than 100 % CC.

Values taken from PMC5509671.
